From patent US20180155451A1 (published 2018)

T1: FcγRIIa R (human, UniProt P12318 34-217)
T1 construct: extracellular domain; also called FcgRIIa R type; 2aR
T1 sequence (looked up): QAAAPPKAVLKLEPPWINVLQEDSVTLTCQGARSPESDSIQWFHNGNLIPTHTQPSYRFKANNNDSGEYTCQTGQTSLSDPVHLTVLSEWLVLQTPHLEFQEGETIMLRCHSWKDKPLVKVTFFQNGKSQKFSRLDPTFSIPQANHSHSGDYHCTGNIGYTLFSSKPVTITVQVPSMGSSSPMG

T2: FcγRIIb (human, UniProt P31994 43-217)
T2 construct: extracellular domain; also called FcgRIIb; 2b
T2 sequence (looked up): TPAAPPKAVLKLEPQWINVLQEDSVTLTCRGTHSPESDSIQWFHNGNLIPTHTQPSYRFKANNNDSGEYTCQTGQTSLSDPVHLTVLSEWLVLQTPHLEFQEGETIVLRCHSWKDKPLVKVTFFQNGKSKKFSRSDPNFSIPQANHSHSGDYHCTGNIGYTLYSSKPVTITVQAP


What was measured:
[1] = target: T1, FcγRIIa R; assay: SPR; He/Con_2aR divided by He/Con_2b (FcγRIIb as reference)
[2] = target: T1, FcγRIIa R; assay: SPR (Biacore), antibody captured, FcγR as analyte; relative binding
[3] = target: T2, FcγRIIb; assay: as above

Row | IIaR/IIb (He_2aR/2b) [1] [ratio] | He/Con_2aR (IIaR binding) [2] | He/Con_2b (IIb binding) [3] | Binder
1 | 1.24 | 91.2 % of GpH7-A5/GpH7-B3/GpL16-k0 (=100) | 73.4 % of GpH7-A5/GpH7-B3/GpL16-k0 (=100) | GpH7-A5/GpH7-B3 variant S298_02A/GpL16-k0 (antibody, human IgG1, kappa, heterodimerized antibody, mutation in the GpH7-B3 chain only; also called He Ab) heavy 1: not shown heavy 2: not shown light: DIVMTQSPLSLPVTPGEPASISCQASESLVHSNRNTYLHWYLQKPGQSPQLLIYKVSNRFSGVPDRFSGSGSGTDFTLKISRVEAEDVGVYYCSQNTHVPPTFGQGTKVEIERTVAAPSVFIFPPSDEQLKSGTASVVCLLNNFYPREAKVQWKVDNALQSGNSQESVTEQDSKDSTYSLSSTLTLSKADYEKHKVYACEVTHQGLSSPVTKSFNRGEC
2 | 1.34 | 76.5 % of GpH7-A5/GpH7-B3/GpL16-k0 (=100) | 57.2 % of GpH7-A5/GpH7-B3/GpL16-k0 (=100) | GpH7-A5/GpH7-B3 variant V266_16H/GpL16-k0 (antibody, human IgG1, kappa, heterodimerized antibody, mutation in the GpH7-B3 chain only; also called He Ab) heavy 1: not shown heavy 2: not shown light: DIVMTQSPLSLPVTPGEPASISCQASESLVHSNRNTYLHWYLQKPGQSPQLLIYKVSNRFSGVPDRFSGSGSGTDFTLKISRVEAEDVGVYYCSQNTHVPPTFGQGTKVEIERTVAAPSVFIFPPSDEQLKSGTASVVCLLNNFYPREAKVQWKVDNALQSGNSQESVTEQDSKDSTYSLSSTLTLSKADYEKHKVYACEVTHQGLSSPVTKSFNRGEC
3 | 1.34 | 16 % of GpH7-A5/GpH7-B3/GpL16-k0 (=100) | 11.9 % of GpH7-A5/GpH7-B3/GpL16-k0 (=100) | GpH7-A5/GpH7-B3 variant S298_05P/GpL16-k0 (antibody, human IgG1, kappa, heterodimerized antibody, mutation in the GpH7-B3 chain only; also called He Ab) heavy 1: not shown heavy 2: not shown light: DIVMTQSPLSLPVTPGEPASISCQASESLVHSNRNTYLHWYLQKPGQSPQLLIYKVSNRFSGVPDRFSGSGSGTDFTLKISRVEAEDVGVYYCSQNTHVPPTFGQGTKVEIERTVAAPSVFIFPPSDEQLKSGTASVVCLLNNFYPREAKVQWKVDNALQSGNSQESVTEQDSKDSTYSLSSTLTLSKADYEKHKVYACEVTHQGLSSPVTKSFNRGEC
4 | 1.3 | 94.3 % of GpH7-A5/GpH7-B3/GpL16-k0 (=100) | 72.8 % of GpH7-A5/GpH7-B3/GpL16-k0 (=100) | GpH7-A5/GpH7-B3 variant Y296_11K/GpL16-k0 (antibody, human IgG1, kappa, heterodimerized antibody, mutation in the GpH7-B3 chain only; also called He Ab) heavy 1: not shown heavy 2: not shown light: DIVMTQSPLSLPVTPGEPASISCQASESLVHSNRNTYLHWYLQKPGQSPQLLIYKVSNRFSGVPDRFSGSGSGTDFTLKISRVEAEDVGVYYCSQNTHVPPTFGQGTKVEIERTVAAPSVFIFPPSDEQLKSGTASVVCLLNNFYPREAKVQWKVDNALQSGNSQESVTEQDSKDSTYSLSSTLTLSKADYEKHKVYACEVTHQGLSSPVTKSFNRGEC
5 | 1.21 | 96.2 % of GpH7-A5/GpH7-B3/GpL16-k0 (=100) | 79.3 % of GpH7-A5/GpH7-B3/GpL16-k0 (=100) | GpH7-A5/GpH7-B3 variant Y296_03V/GpL16-k0 (antibody, human IgG1, kappa, heterodimerized antibody, mutation in the GpH7-B3 chain only; also called He Ab) heavy 1: not shown heavy 2: not shown light: DIVMTQSPLSLPVTPGEPASISCQASESLVHSNRNTYLHWYLQKPGQSPQLLIYKVSNRFSGVPDRFSGSGSGTDFTLKISRVEAEDVGVYYCSQNTHVPPTFGQGTKVEIERTVAAPSVFIFPPSDEQLKSGTASVVCLLNNFYPREAKVQWKVDNALQSGNSQESVTEQDSKDSTYSLSSTLTLSKADYEKHKVYACEVTHQGLSSPVTKSFNRGEC
6 | 1.34 | 86.3 % of GpH7-A5/GpH7-B3/GpL16-k0 (=100) | 64.5 % of GpH7-A5/GpH7-B3/GpL16-k0 (=100) | GpH7-A5/GpH7-B3 variant S298_03V/GpL16-k0 (antibody, human IgG1, kappa, heterodimerized antibody, mutation in the GpH7-B3 chain only; also called He Ab) heavy 1: not shown heavy 2: not shown light: DIVMTQSPLSLPVTPGEPASISCQASESLVHSNRNTYLHWYLQKPGQSPQLLIYKVSNRFSGVPDRFSGSGSGTDFTLKISRVEAEDVGVYYCSQNTHVPPTFGQGTKVEIERTVAAPSVFIFPPSDEQLKSGTASVVCLLNNFYPREAKVQWKVDNALQSGNSQESVTEQDSKDSTYSLSSTLTLSKADYEKHKVYACEVTHQGLSSPVTKSFNRGEC
7 | 1.25 | 99.6 % of GpH7-A5/GpH7-B3/GpL16-k0 (=100) | 79.5 % of GpH7-A5/GpH7-B3/GpL16-k0 (=100) | GpH7-A5/GpH7-B3 variant Y296_12R/GpL16-k0 (antibody, human IgG1, kappa, heterodimerized antibody, mutation in the GpH7-B3 chain only; also called He Ab) heavy 1: not shown heavy 2: not shown light: DIVMTQSPLSLPVTPGEPASISCQASESLVHSNRNTYLHWYLQKPGQSPQLLIYKVSNRFSGVPDRFSGSGSGTDFTLKISRVEAEDVGVYYCSQNTHVPPTFGQGTKVEIERTVAAPSVFIFPPSDEQLKSGTASVVCLLNNFYPREAKVQWKVDNALQSGNSQESVTEQDSKDSTYSLSSTLTLSKADYEKHKVYACEVTHQGLSSPVTKSFNRGEC
8 | 1.4 | 67.8 % of GpH7-A5/GpH7-B3/GpL16-k0 (=100) | 48.3 % of GpH7-A5/GpH7-B3/GpL16-k0 (=100) | GpH7-A5/GpH7-B3 variant S298_09D/GpL16-k0 (antibody, human IgG1, kappa, heterodimerized antibody, mutation in the GpH7-B3 chain only; also called He Ab) heavy 1: not shown heavy 2: not shown light: DIVMTQSPLSLPVTPGEPASISCQASESLVHSNRNTYLHWYLQKPGQSPQLLIYKVSNRFSGVPDRFSGSGSGTDFTLKISRVEAEDVGVYYCSQNTHVPPTFGQGTKVEIERTVAAPSVFIFPPSDEQLKSGTASVVCLLNNFYPREAKVQWKVDNALQSGNSQESVTEQDSKDSTYSLSSTLTLSKADYEKHKVYACEVTHQGLSSPVTKSFNRGEC
9 | 1.3 | 47.7 % of GpH7-A5/GpH7-B3/GpL16-k0 (=100) | 36.6 % of GpH7-A5/GpH7-B3/GpL16-k0 (=100) | GpH7-A5/GpH7-B3 variant Y296_05P/GpL16-k0 (antibody, human IgG1, kappa, heterodimerized antibody, mutation in the GpH7-B3 chain only; also called He Ab) heavy 1: not shown heavy 2: not shown light: DIVMTQSPLSLPVTPGEPASISCQASESLVHSNRNTYLHWYLQKPGQSPQLLIYKVSNRFSGVPDRFSGSGSGTDFTLKISRVEAEDVGVYYCSQNTHVPPTFGQGTKVEIERTVAAPSVFIFPPSDEQLKSGTASVVCLLNNFYPREAKVQWKVDNALQSGNSQESVTEQDSKDSTYSLSSTLTLSKADYEKHKVYACEVTHQGLSSPVTKSFNRGEC
10 | 1.21 | 95.8 % of GpH7-A5/GpH7-B3/GpL16-k0 (=100) | 79.3 % of GpH7-A5/GpH7-B3/GpL16-k0 (=100) | GpH7-A5/GpH7-B3 variant Y296_01G/GpL16-k0 (antibody, human IgG1, kappa, heterodimerized antibody, mutation in the GpH7-B3 chain only; also called He Ab) heavy 1: not shown heavy 2: not shown light: DIVMTQSPLSLPVTPGEPASISCQASESLVHSNRNTYLHWYLQKPGQSPQLLIYKVSNRFSGVPDRFSGSGSGTDFTLKISRVEAEDVGVYYCSQNTHVPPTFGQGTKVEIERTVAAPSVFIFPPSDEQLKSGTASVVCLLNNFYPREAKVQWKVDNALQSGNSQESVTEQDSKDSTYSLSSTLTLSKADYEKHKVYACEVTHQGLSSPVTKSFNRGEC
11 | 1.29 | 84 % of GpH7-A5/GpH7-B3/GpL16-k0 (=100) | 65.4 % of GpH7-A5/GpH7-B3/GpL16-k0 (=100) | GpH7-A5/GpH7-B3 variant S298_04F/GpL16-k0 (antibody, human IgG1, kappa, heterodimerized antibody, mutation in the GpH7-B3 chain only; also called He Ab) heavy 1: not shown heavy 2: not shown light: DIVMTQSPLSLPVTPGEPASISCQASESLVHSNRNTYLHWYLQKPGQSPQLLIYKVSNRFSGVPDRFSGSGSGTDFTLKISRVEAEDVGVYYCSQNTHVPPTFGQGTKVEIERTVAAPSVFIFPPSDEQLKSGTASVVCLLNNFYPREAKVQWKVDNALQSGNSQESVTEQDSKDSTYSLSSTLTLSKADYEKHKVYACEVTHQGLSSPVTKSFNRGEC
12 | 1.28 | 90.1 % of GpH7-A5/GpH7-B3/GpL16-k0 (=100) | 70.6 % of GpH7-A5/GpH7-B3/GpL16-k0 (=100) | GpH7-A5/GpH7-B3 variant S298_07I/GpL16-k0 (antibody, human IgG1, kappa, heterodimerized antibody, mutation in the GpH7-B3 chain only; also called He Ab) heavy 1: not shown heavy 2: not shown light: DIVMTQSPLSLPVTPGEPASISCQASESLVHSNRNTYLHWYLQKPGQSPQLLIYKVSNRFSGVPDRFSGSGSGTDFTLKISRVEAEDVGVYYCSQNTHVPPTFGQGTKVEIERTVAAPSVFIFPPSDEQLKSGTASVVCLLNNFYPREAKVQWKVDNALQSGNSQESVTEQDSKDSTYSLSSTLTLSKADYEKHKVYACEVTHQGLSSPVTKSFNRGEC
